{"source": "patent US10765706B2", "about": "“Method of stem cell delivery into the brain during chronic disease using blood brain barrier permeabilizers” (University of South Florida, priority 2015, dated 2020)", "origin": "cited, not measured here", "test_system": "stroke patients", "conditions": "acute stroke patients"}
{"molecule": "t-PA: thrombolytic agent, tissue plasminogen activator (protein, UniProt P00750 36-562, looked up) Tissue-type plasminogen …: SYQVICRDEKTQMIYQQHQSWLRPVLRSNRVEYCWCNSGRAQCHSVPVKSCSEPRCFNGGTCQQALYFSDFVCQCPEGFAGKCCEIDTRATCYEDQGISYRGTWSTAESGAECTNWNSSALAQKPYSGRRPDAIRLGLGNHNYCRNPDRDSKPWCYVFKAGKYSSEFCSTPACSEGNSDCYFGNGSAYRGTHSLTESGASCLPWNSMILIGKVYTAQNPSAQALGLGKHNYCRNPDGDAKPWCHVLKNRRLTWEYCDVPSCSTCGLRQYSQPQFRIKGGLFADIASHPWQAAIFAKHRRSPGERFLCGGILISSCWILSAAHCFQERFPPHHLTVILGRTYRVVPGEEEQKFEVEKYIVHKEFDDDTYDNDIALLQLKSDSSRCAQESSVVRTVCLPPADLQLPDWTECELSGYGKHEALSPFYSERLKEAHVRLYPSSRCTSQHLLNRTVTDNMLCAGDTRSGGPQANLHDACQGDSGGPLVCLNDGRMTLVGIISWGLGCGQKDVPGVYTKVTNYLDWIRDNMRP", "values": [{"measurement": "fraction of patients receiving the therapy with enhanced recovery", "result": "⅓"}]}
